# T1: CD24 (human, UniProt P25063 27-59)
# T1 construct: whole, on cells; For MCF-7 and REH cells it says only CD24+; also called human CD24; hCD24
# T1 chain (looked up): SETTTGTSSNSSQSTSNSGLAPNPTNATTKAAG
# B1: IMM47H (antibody, human IgG1, kappa, V domains shown)
# VH: DVQLQESGPGLVKPSETLSLTCTVSGYSITSGYSWHWIRQPPGKGLEWIGYIHYSGSTKYNPSLKSRVTISVDTSKNQFSLKLSSVTAADTAVYYCARGADYALDYWGQRTSVTVSS
# VL: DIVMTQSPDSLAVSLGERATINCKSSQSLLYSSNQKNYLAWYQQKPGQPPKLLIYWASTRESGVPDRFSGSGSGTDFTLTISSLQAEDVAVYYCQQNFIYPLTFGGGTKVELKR
# notes: also called humanized anti-CD24 antibody
# Target: T1, CD24
# Assay: flow cytometry on CD24+ MCF-7 cells, FITC anti-human IgG-Fc secondary
# Protocol: CD24⁺ MCF-7 cells in 100 μl culture medium at a cell density of 1×10⁶/ml were incubated with 100 μl serially diluted IMM47H and hIgG-Fc (3-fold dilution, starting at 30 μg/ml), respectively, at 4° C. for 1 h. Cells were washed with cold PBS twice, and then incubated with 100 μl FITC-conjugated secondary antibody against human IgG-Fc (Cat #F9512, Sigma) for 45 min. Cells were washed twice and re-suspended in 200 μl PBS. Then, the cells were subject to FACS analysis using a flow cytometer (Merck Millipore, Guava® easyCyte 5HT).
binder,measurement,value
B1,binding result,binds
